Reference: publication PMC1669778

Experiments:
[1] = biological target: C-terminal fragment of human topoisomerase I (HTOP14) (human) (UniProt P11387); experiment: pull-down
[2] = biological target: C-terminal fragment of human topoisomerase I (HTOP14) (human) (UniProt P11387); experiment: fluorescence polarisation
[3] = biological target: small subunit of L.donovani topoisomerase I (LdTOP1S) (Leishmania donovani); experiment: fluorescence polarisation
LdTOP1L-fus-HTOP14 = LdTOP1L-fus-HTOP14 (Leishmania donovani / human chimera, UniProt A0A3Q8IHS4 1-635+=EF+P11387:636-765, internal_change); experiment: SDS trapping of covalent complex

Molecule	stoichiometry N [1]	Kd [2]	Kd [3]	binding signal (LdTOP1L-fus-HTOP14)
large subunit of L.donovani topoisomerase I (LdTOP1L) (natural protein)	1	162 nM	59.8 nM	–
25mer duplex ML25/MC25 (dsDNA) DNA 1: GAAAAAAGACTTAGAAAAATTTTTA DNA 2: TAAAAATTTTTCTAAGTCTTTTTTC	–	–	–	~2 fold more covalent complex than LdTOP1L/S
